From patent publication US20260167959A1, “APTAZYME-BASED REGULATABLE GENE EXPRESSION SYSTEMS” (REJUVENATE BIO INC, priority 2022, published 2026)

B1: RA371 (nucleic acid)
DNA: GCGCGTCCTGGATTCGCGGAAACGCGTACATCCAGCTGACGAGTCCCAAAAGAATACCAGCATCGTCTTGATGCCCTTGGAAGTCTTAGGACGAAACGCGC
modifications: expressed or natural sequence
B2: RA372 (nucleic acid)
DNA: GCGCGTCCTGGATTCGCGGAAACGCGTACATCCAGCTGACGAGTCCCAAACGAGAATACCAGCATCGTCTTGATGCCCTTGGAAGTCTCGTAGGACGAAACGCGC
modifications: expressed or natural sequence
B3: RA383 (nucleic acid)
DNA: CGGAATACCAGCATCGTCTTGATGCCCTTGGAAGTCCGGCGCGTCCTGGATTCGCGGAAACGCGTACATCCAGCTGACGAGTCCCAAATAGGACGAAACGCGC
modifications: expressed or natural sequence
B4: RA375 (nucleic acid)
DNA: GCGCGTCCTGGATTCGCGGAAACGCGTACATCCAGCTCCGGAATACCAGCATCGTCTTGATGCCCTTGGAAGTCCGGGACGAGTCCCAAATAGGACGAAACGCGC
modifications: expressed or natural sequence
B5: RA370 (nucleic acid)
DNA: GCGCGTCCTGGATTCGCGGAAACGCGTACATCCAGCTGACGAGTCCCAAATAGGACGAAACGGGAATACCAGCATCGTCTTGATGCCCTTGGAAGTCCCGC
modifications: expressed or natural sequence
B6: RA377 (nucleic acid)
DNA: GCGCGTCCTGGATTCGCGGAAACGCGTACATCCAGCTGACGAGTCCCAAATAGGACGGAGAATACCAGCATCGTCTTGATGCCCTTGGAAGTCTCAAACGCGC
modifications: expressed or natural sequence
B7: RA385 (nucleic acid)
DNA: GCGCGTCCTGGATCCGGAATACCAGCATCGTCTTGATGCCCTTGGAAGTCCGGTCGCGGAAACGCGTACATCCAGCTGACGAGTCCCAAATAGGACGAAACGCGC
modifications: expressed or natural sequence
B8: RA384 (nucleic acid)
DNA: GCGCGTCCTGGATTCGCGGAAACGCGTACATCCAGCTGACGAGTCGAGAATACCAGCATCGTCTTGATGCCCTTGGAAGTCTCCCAAATAGGACGAAACGCGC
modifications: expressed or natural sequence
B9: RA376 (nucleic acid)
DNA: GCGCGTCCTGGATTCGCGGAAACGCGTACATCCAGCTGAAGAATACCAGCATCGTCTTGATGCCCTTGGAAGTCTCGAGTCCCAAATAGGACGAAACGCGC
modifications: expressed or natural sequence
B10: RA381 (nucleic acid)
DNA: GCGCGTCCTGGATTCGCGGAAACGCGTACATCCAGCTGACGAGTCCCAAATAGGACGAAACGCGCCCGGAATACCAGCATCGTCTTGATGCCCTTGGAAGTCCGG
modifications: expressed or natural sequence
B11: RA379 (nucleic acid)
DNA: GCGCGTCCTGGATTCGCGGAAACGCGGAATACCAGCATCGTCTTGATGCCCTTGGAAGTCCGTACATCCAGCTGACGAGTCCCAAATAGGACGAAACGCGC
modifications: expressed or natural sequence
B12: RA386 (nucleic acid)
DNA: GCGCGTCCTGGATTCGCGGAAACGCGTACATCCAGCTGACGGGAATACCAGCATCGTCTTGATGCCCTTGGAAGTCCAGTCCCAAATAGGACGAAACGCGC
modifications: expressed or natural sequence
B13: RA374 (nucleic acid)
DNA: GCGCGTCCTGGATTCGCGGAAACGCGTACATCCAGCTGCCGGAATACCAGCATCGTCTTGATGCCCTTGGAAGTCCGGACGAGTCCCAAATAGGACGAAACGCGC
modifications: expressed or natural sequence
B14: RA380 (nucleic acid)
DNA: GCGCGTCCTGGATTCGCGGAAACGCCGAGAATACCAGCATCGTCTTGATGCCCTTGGAAGTCTCGGTACATCCAGCTGACGAGTCCCAAATAGGACGAAACGCGC
modifications: expressed or natural sequence
B15: RA373 (nucleic acid)
DNA: GCGCGTCCTGGATTCGCGGAAACGCGTACATCCAGCTGACGAGTCCCAAGTGATACCAGCATCGTCTTGATGCCCTTGGCAGCACTAATAGGACGAAACGCGC
modifications: expressed or natural sequence
B16: RA387 (nucleic acid)
DNA: GCGCGTCCTGGATTCGCGGAAACGCGCCGGAATACCAGCATCGTCTTGATGCCCTTGGAAGTCCGGTACATCCAGCTGACGAGTCCCAAATAGGACGAAACGCGC
modifications: expressed or natural sequence
B17: RA378 (nucleic acid)
DNA: GCGCGTCCTGGATTCGCGGAAACGCGTACATCCCGGAATACCAGCATCGTCTTGATGCCCTTGGAAGTCCGGCAGCTGACGAGTCCCAAATAGGACGAAACGCGC
modifications: expressed or natural sequence
B18: RA382 (nucleic acid)
DNA: GCGCGTCCTGGATTCGCGGAAACGCGTACATCCAGCTGACGCCGGAATACCAGCATCGTCTTGATGCCCTTGGAAGTCCGGAGTCCCAAATAGGACGAAACGCGC
modifications: expressed or natural sequence
B19: RA003 (nucleic acid)
DNA: GCGCGTCCTGCGGAATACCAGCATCGTCTTGATGCCCTTGGAAGTCCGGATTCGCGGAAACGCGTACATCCAGCTGACGAGTCCCAAATAGGACGAAACGCGC
modifications: expressed or natural sequence
B20: RA037 (nucleic acid)
DNA: GCGCGTCCTGGATTCGCCGGAATACCAGCATCGTCTTGATGCCCTTGGAAGTCCGGGAAACGCGTACATCCAGCTGACGAGTCCCAAATAGGACGAAACGCGC
modifications: expressed or natural sequence

Each molecule was assayed on Renilla luciferase RNA (assay: Barcoded aptazyme variant library screen: un-cleaved Renilla luciferase RNA by barcode read counts, HEK293-T cells). Conditions: un-cleaved Renilla luciferase RNA by barcode read counts; with 1 mM theophylline (ON) over without theophylline (OFF); HEK293-T cells; triplicate.
Assay type: cell-based
Outline: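 Barcode sequencing of cDNA versus DNA, normalized per aptazyme, gave the un-cleaved Renilla luciferase RNA fraction and fold-change with versus without theophylline (triplicates). Library: T3H48 ribozyme with one of seven theophylline aptamer variants inserted at each position, placed in the Renilla 3′ UTR of a dual-luciferase vector.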

Molecule | Fold change in RNA expression between the ON state and the OFF state
B1 | 0.8
B2 | 0.8
B3 | 0.8
B4 | 0.8
B5 | 0.8
B6 | 0.8
B7 | 0.8
B8 | 0.8
B9 | 0.8
B10 | 0.8
B11 | 0.8
B12 | 0.8
B13 | 0.8
B14 | 0.8
B15 | 0.8
B16 | 0.8
B17 | 0.8
B18 | 0.8

Same assay, conditions: un-cleaved Renilla luciferase RNA, HEK293-T cells cultured with 1 mM theophylline (ON) over without theophylline (OFF); barcode read counts, triplicate

Molecule | Fold change in RNA expression between the ON state and the OFF state
B19 | 5.5 fold
B20 | 2.2 fold
